Measurements reported in US20220411517A1 (LEO PHARMA A S, published 2022).

T1: human IL1RAcP domain 3 (AG-12127) (human)
T1 construct: also called domain 3 of human IL-1RAcP
T1 chain: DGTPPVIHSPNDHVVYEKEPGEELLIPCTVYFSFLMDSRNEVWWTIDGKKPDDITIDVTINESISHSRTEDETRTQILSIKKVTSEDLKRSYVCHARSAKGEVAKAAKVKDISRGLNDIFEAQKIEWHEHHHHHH

T2: human IL1RAcP domain 1 (AG-12335) (human)
T2 construct: also called domain 1 of human IL-1RAcP
T2 chain: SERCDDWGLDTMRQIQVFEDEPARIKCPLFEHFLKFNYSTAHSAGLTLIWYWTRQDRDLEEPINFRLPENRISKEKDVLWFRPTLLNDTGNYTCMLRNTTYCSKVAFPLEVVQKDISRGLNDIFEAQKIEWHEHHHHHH

B1: 1A05_rbh_FabCys-AviH (Fab, V domains shown)
VH: LEQSGGGAEGGLVKPGGSLELCCKASGFSLSTSYWRCWVRQAPGKGLEWIGCIYAGSGDVTYYANWVNGRFTLSRDIDQSTGCLQLNSLTAADTAMYYCASGVGFGYFNLWGQGTLVTVSS
VL: ALVMTQTPSPVSAAVGGTVTINCQASEDIYSNLAWFQQKPGQPPKLLIYDASTLASGVPSRFSGSGSGTEFTLTISGLQSDDAATYYCLGVYTHISADNAFGGGTEVVVKR
notes: Tested as disulphide-linked Fab with Avi and His tags; also called 1A05 in FabCys-AviHis format; 1A05 (R001032)
B2: Y024084_h_IgG1f_AEASS (antibody, V domains shown)
VH: QVQLVQSGAEVKKPGASVKVSCKASGYTFTSYYMHWVRQAPGQGLEWMGIINPSGGSTSYAQKFQGRVTMTRDTSTSTVYMELSSLRSEDTAVYYCARGFVTSGIDYWGQGTLVTVSS
VL: QSVLTQPPSVSAAPGQKVTISCSGSSSNIGNNYVSWYQQLPGTAPKLLIYDNNKRPSGIPDRFSGSKSGTSATLGITGLQTEDEADYYCQTWTYTGRLWIVFGGGTKLTVLG
notes: also called Morphosys 24084; Mor Y024084
B3: Y024148_h_IgG1f_AEASS (antibody, V domains shown)
VH: EVQLVESGGGLVQPGGSLRLSCAASGGTIGGSAVHWVRQAPGKGLVWVSRILTYSSTTQYAESVKGRFTISRDNAKNTLYLQMNSLRAEDTAVYYCARGSSEYPKFDIWGQGTLVTVSS
VL: DIQMTQSPSTLSASVGDRVTITCRASQSISSWLAWYQQKPGKAPKLLIYDASSLESGVPSRFSGSGSGTEFTLTISSLQPEDFATYYCHQLLIYPHTFGQGTKVEIKR
notes: Human IgG1f with AEASS effector-silencing residues, kappa light chain
B4: h11C5 YKD (antibody, human IgG1, kappa, V domains shown)
VH: EVQLVESGGGLVQPGGSLRLSCAASGFTFSNYAMSWVRQAPGKGLEWVATVTEGGDYNYYLDDVKGRFTISRDNAKNSLYLQMNSLRAEDTAVYYCARDDWPYFFDYWGQGTLVTVSS
VL: DIQMTQSPSSLSASVGDRVTITCRASENIYSNLAWYQQKPGKSPKLLVYGYKNLADVPSRFSGSGSGTDYTLTISSLQPEDFATYYCQHFKTTPRTFGGGTKVEIKR
notes: Variable domains of h11C5 YKD on the same modified IgG1 kappa constant regions (AEASS); Printed as 'h1105' in much of the text; also called h1105
B5: R001031 (CAN04) (antibody, human IgG1, kappa, V domains shown)
VH: QVQLVQSGAEVKKPGSSVKVSCKASGYAFSSSWMNWVRQAPGQGLEWMGRIYPGDGNTHYAQKFQGRVTLTADKSTSTAYMELSSLRSEDTAVYYCGEGYLDPMDYWGQGTLVTVSS
VL: DIQMTQSPSSLSASVGDRVTITCSASQGINNYLNWYQQKPGKAPKLLIHYTSGLHAGVPSRFSGSGSGTDYTLTISSLQPEDVATYYCQQYSILPWTFGGGTKVEIKR
notes: Variable domains of prior art CAN04 on human IgG1 kappa constant regions with AEASS
B6: CAN04_h_FabCys-AviH (Fab, V domains shown)
VH: B5 VH
VL: B5 VL
notes: Tested as disulphide-linked Fab with Avi and His tags; also called CAN04 in FabCys-AviHis format; CAN04 (R001031)

Key:
[1] = target: T3, hIL-1RAP(1-367)_F-chLys_Avi (human, biotinylated (Avi tag) in SPR and ELISA binning; unlabeled in SET); experiment: SPR (Biacore), biotinylated antigen captured, FabCys-AviHis as analyte, 1:1 fit
T3 construct: also called human IL-1RAcP (AG-12210)
Description: (§1) Approximately 3000 RU capture reagent was bound. This surface was used to load biotinylated antigen to generate a low-density surface for subsequent kinetic characterization (approx. 60-100 RU antigen loaded). […] After injecting the last and highest analyte concentration, a long dissociation phase was recorded. […] A blank injection of assay buffer (HBS-EP+) following the same injection pattern as described above was recorded and subtracted from specific sensorgrams during analysis (double referencing). At the end of each cycle, the sensor was regenerated with one 120 s injection of 6 M guanidine hydrochloride in 250 mM NaOH, which completely removed capture reagent with loaded biotinylated antigen and bound Fab fragments. The obtained sensorgrams were fitted to a monovalent binding model using Biacore Insight Evaluation Software. The obtained values for rate constants kₒₙ and koff were used to calculate KD.

[2] = target: T3, hIL-1RAP(1-367)_F-chLys_Avi; experiment: ELISA binning; competitor: coated Y024084 FabCys-AviHis (sheet title Y024084_FAB COATED); 1.5 nM biotinylated human IL-1RAcP (AG-12210) pre-incubated with the titrated Fab; captured IL-1RAcP detected with streptavidin-AP
Description: (§2) Epitope binning was performed using an ELISA-based competition assay. The experiments were performed using either IgG1f_AEASS or FabCys-AviHis. Antibodies were diluted to three (3) nM (for IgGs) or to 20 nM (in case of Fabs) in PBS. […] The next day 90 μL/well blocking solution (5% BSA in PBS) was added to the plate followed by an incubation at RT for at least 1 h. During incubation, the competing antibodies, including reference and negative control antibodies, were diluted in assay buffer (1xPBS, 0.5% BSA, 0.02% Tween). […] Following the incubation of the blocking solution, the ELISA plates were washed 3× with PBST. Subsequently, 20 μl/well of the prepared antibody/antigen solution was transferred to the wells and incubated for 30 min with gentle agitation. Subsequently, plates were washed 3× using PBS-T.
(§3) For detection 20 μl of a prepared streptavidin-alkaline phosphatase conjugate solution was added to the wells in order to detect bound biotinylated human IL-1RAcP. Incubation happened for 30 min with gentle agitation. Following the incubation with streptavidin-alkaline phosphatase conjugate, assay plates were washed 5× with PBS-T. Then 20 μl of AttoPhos substrate (diluted 1:5 in H₂O) was added to the wells. Plates were incubated for 10 min at RT and readout happened using a Tecan M1000 Pro Reader.
(§4) Every graph represents an individual first antibody in the FabCys-AviHis format coated on the surface. […] Subsequently, preformed antigen antibody complex was added to the respective wells with the surface coated first antibody. Detection happened via the biotin of IL-1RAcP using a streptavidin-alkaline phosphatase conjugate.

[3] = target: T3, hIL-1RAP(1-367)_F-chLys_Avi; experiment: ELISA binning; competitor: coated CAN04 FabCys-AviHis; 1.5 nM biotinylated human IL-1RAcP (AG-12210) pre-incubated with the titrated Fab; captured IL-1RAcP detected with streptavidin-AP
Description: as §2, §3, §4

[4] = target: T3, hIL-1RAP(1-367)_F-chLys_Avi; experiment: ELISA binning; competitor: coated Y024149 FabCys-AviHis (sheet title Y024149_FAB COATED); 1.5 nM biotinylated human IL-1RAcP (AG-12210) pre-incubated with the titrated Fab; captured IL-1RAcP detected with streptavidin-AP
Description: as §2, §3, §4

[5] = target: T3, hIL-1RAP(1-367)_F-chLys_Avi; experiment: ELISA binning; competitor: coated Y024148 FabCys-AviHis; 1.5 nM biotinylated human IL-1RAcP (AG-12210) pre-incubated with the titrated Fab; captured IL-1RAcP detected with streptavidin-AP
Description: as §2
For detection 20 μl of a prepared streptavidin-alkaline phosphatase conjugate solution was added to the wells in order to detect bound biotinylated human IL-1RAcP. Incubation happened for 30 min with gentle agitation. Following the incubation with streptavidin-alkaline phosphatase conjugate, assay plates were washed 5× with PBS-T. Then 20 μl of AttoPhos substrate (diluted 1:5 in H₂O) was added to the wells. Plates were incubated for 10 min at RT and readout happened using a Tecan M1000 Pro Reader. […]

[6] = target: T4, cyIL-1RAP(1-367)_F-chLys_Avi (cynomolgus, biotinylated (Avi tag) in SPR; unlabeled in SET); experiment: SPR (Biacore), biotinylated antigen captured, FabCys-AviHis as analyte, 1:1 fit
T4 construct: cynomolgus IL-1RAcP (21-367) is UniProt A0A2K5X5J5; also called cynomolgus IL-1RAcP (AG-12211)
Description: as §1

[7] = target: T4, cyIL-1RAP(1-367)_F-chLys_Avi; experiment: solution equilibrium titration (SET), ECL read-out, IgG
Description: (§5) MSD SulfoTAG™ NHS-Ester (Meso Scale Diagnostics) according to the manufacturer's instructions. […] Serial dilutions of unlabeled antigen were prepared, starting with a concentration at least 10 times higher than the expected KD. Wells without antigen were used to determine Bₘₐₓ values;
(§6) wells containing only assay buffer were used to determine background. […] MSD plates were coated with antigen on standard plates (30 μL per well). After washing the plate with PBS with 0.05% Tween 20, the equilibrated samples were transferred to the plates and incubated for 20 min. […] After washing the MSD plate and adding 30 μL/well MSD Read Buffer T with surfactant, electrochemiluminescence signals were detected using a MESO SECTOR S 600 (Meso Scale Diagnostics).
(§7) The data was evaluated with XLfit (IDBS) software applying customized fitting models.

[8] = target: T1, human IL1RAcP domain 3 (AG-12127); experiment: ELISA on directly coated human IL-1RAcP domain 3 (AG-12127), IgG titrated, S/BG
[9] = target: cynomolgus IL-1RAcP on cells (cynomolgus, UniProt A0A2K5X5J5 21-570); experiment: cell-based or functional assay
human IL-1RAcP on cells = human IL-1RAcP on cells (human, UniProt Q9NPH3 21-570); experiment: cell-based or functional assay
[10] = target: T3, hIL-1RAP(1-367)_F-chLys_Avi; experiment: solution equilibrium titration (SET), ECL read-out, IgG
Description: as §5, §6, §7

[11] = target: T4, cyIL-1RAP(1-367)_F-chLys_Avi; experiment: ELISA on cynomolgus IL-1RAcP (AG-12211), IgG1f_AEASS titrated 0.007-200 nM, AP-coupled secondary antibody with AttoPhos, signal over background (S/BG)
Excerpt: (§8) Bound antibodies were detected using respective alkaline-phosphatase (AP) coupled secondary antibodies in combination with ‘AttoPhos’ fluorescence substrate. Multiple washing steps have been performed in between individual assay steps.

[12] = target: T5, human IL1RAcP domain 1/2 (AG-12337) (human); experiment: ELISA on directly coated human IL-1RAcP domain 1/2 (AG-12337), IgG1f_AEASS titrated, S/BG
T5 construct: also called domain 1/2 of human IL-1RAcP

[13] = target: T3, hIL-1RAP(1-367)_F-chLys_Avi; experiment: ELISA on human IL-1RAcP (AG-12210), IgG1f_AEASS titrated 0.007-200 nM, AP-coupled secondary antibody with AttoPhos, signal over background (S/BG)
Excerpt: as §8

[14] = target: T2, human IL1RAcP domain 1 (AG-12335); experiment: ELISA on directly coated human IL-1RAcP domain 1 (AG-12335), IgG titrated, S/BG
Description: All were assessed with direct coating of the antigen. […] An anti-His antibody served as positive control.

recombinant rat IL-1RAcP = recombinant rat IL-1RAcP (rat, UniProt Q63621 21-367, limits assumed); experiment: ELISA (FIG. 1-3 cited)
[15] = target: T3, hIL-1RAP(1-367)_F-chLys_Avi; experiment: SET, ratio of KD values
[16] = target: T4, cyIL-1RAP(1-367)_F-chLys_Avi; experiment: SET, ratio of KD values
[17] = target: T6, mouse (AG-12212) IL-1RAcP (mouse, UniProt Q61730 21-367, limits assumed); experiment: ELISA in Fc-capture mode of the IgGs, mouse IL-1RAcP (AG-12212), S/BG
T6 construct: Recombinant tagged antigen; also called recombinant mouse IL-1RAcP; mouse IL-1RAP
Excerpt: as §8

| Binder | Kd [1] [nM] | IC50 (read off the curve) [2] [nM] | IC50 (read off the curve) [3] [nM] | IC50 (read off the curve) [4] [nM] | Kd [6] [nM] | Kd [7] [nM] | binding result [8] | IC50, IL-8 release, CyDFa stimulated with cynomolgus IL-1β [9] [nM] | IC50, IFNγ release, PBMC stimulated with IL-1β (human IL-1RAcP on cells) [nM] | IC50, IFNγ release, PBMC stimulated with IL-33 (human IL-1RAcP on cells) [nM] | IC50, IL-8 release, HDFa stimulated with IL-1α (human IL-1RAcP on cells) [nM] | IC50, IL-8 release, HDFa stimulated with IL-36α (human IL-1RAcP on cells) [nM] | IC50, IL-8 release, HDFa stimulated with IL-36β (human IL-1RAcP on cells) [nM] | IC50, IL-8 release, HDFa stimulated with IL-36γ (human IL-1RAcP on cells) [nM] | IC50, IL-8 release, HEKa stimulated with IL-1β (human IL-1RAcP on cells) [nM] | IC50, IL-8 release, HEKa stimulated with IL-36β (human IL-1RAcP on cells) [nM] | Kd [10] [nM] | EC50 (read off the curve) [11] [nM] | EC50 (read off the curve) [12] [nM] | binding result [14] | other results |
| --- | --- | --- | --- | --- | --- | --- | --- | --- | --- | --- | --- | --- | --- | --- | --- | --- | --- | --- | --- | --- | --- |
| B1 | 0.221 | ~1 | ~1 | ~1 | 0.184 | – | – | – | – | – | – | – | – | – | – | – | – | – | – | – | IC50 (read off the curve) [5]: ~1 nM |
| B2 | – | – | – | – | – | 0.004 | no binding (tested: 2e-7 M) | 0.12 | 5.2 | 0.69 | 20 | 0.025 | 0.033 | 0.022 | 19 | 0.029 | 0.004 | 0.1 to 0.2 | ~3 | no binding (tested: 2e-7 M) | EC50 (read off the curve) [13]: 0.1 to 0.2 nM |
| B3 | – | – | – | – | – | 0.001 | no binding (tested: 2e-7 M) | 0.043 | 1.2 | 0.72 | 1.2 | 0.014 | 0.039 | 0.042 | 35 | 0.2 | 0.002 | 0.1 to 0.2 | ~6 | no binding (tested: 2e-7 M) | binding result (recombinant rat IL-1RAcP): no binding; fold stronger KD than reference R001031 (CAN04) [15]: ~10.5 fold; fold stronger KD than reference R001032 (1A05) [15]: ~5.5 fold; fold stronger KD than reference R001031 (CAN04) [16]: ~16 fold; fold stronger KD than reference R001032 (1A05) [16]: ~15 fold; EC50 (read off the curve) [13]: 0.1 to 0.2 nM; binding result [17]: no binding (tested: 200 nM) |
| B4 | – | – | – | – | – | 0.003 | – | 1 | 4.6 | 0.82 | 22 | 0.18 | 0.28 | 0.24 | 670 | 1.98 | 0.003 | – | – | – | – |
| B5 | – | – | – | – | – | 0.016 | no binding (tested: 2e-7 M) | 1 | 3.5 | 1.3 | 3.6 | 0.019 | 0.024 | 0.008 | 18 | 0.02 | 0.021 | – | ~3 | no binding (tested: 2e-7 M) | – |
| B6 | 0.167 | ~1 | ~1 | ~2 | 0.128 | – | – | – | – | – | – | – | – | – | – | – | – | – | – | – | – |
